Reference: patent US20200231654A1 (published 2020)
Like-named read-outs stand apart in the source and are kept apart here.

Assays:
[1] = target: T1, active hMMP-9(cat)_His6 (UniProt P14780 107-449); assay: enzyme inhibition; substrate peptide
[2] = target: G112R; assay: substrate peptide degradation inhibition
[3] = target: T109F; assay: substrate peptide degradation inhibition
[4] = target: I198V; assay: substrate peptide degradation inhibition
[5] = target: P180A; assay: substrate peptide degradation inhibition
[6] = target: G186A; assay: substrate peptide degradation inhibition
[7] = target: E111P; assay: substrate peptide degradation inhibition
[8] = target: Q108N; assay: substrate peptide degradation inhibition
[9] = target: D113K; assay: substrate peptide degradation inhibition
[10] = target: S413Q; assay: substrate peptide enzyme inhibition
[11] = target: P421A; assay: substrate peptide enzyme inhibition
[12] = target: P196T; assay: substrate peptide degradation inhibition
[13] = target: L114P; assay: substrate peptide degradation inhibition
[14] = target: L418A; assay: substrate peptide enzyme inhibition
[15] = target: D410E; assay: substrate peptide enzyme inhibition
[16] = target: T1, active hMMP-9(cat)_His6; assay: enzyme inhibition; substrate peptide; remark: listed apart in the source

T1 sequence (P14780 107-449): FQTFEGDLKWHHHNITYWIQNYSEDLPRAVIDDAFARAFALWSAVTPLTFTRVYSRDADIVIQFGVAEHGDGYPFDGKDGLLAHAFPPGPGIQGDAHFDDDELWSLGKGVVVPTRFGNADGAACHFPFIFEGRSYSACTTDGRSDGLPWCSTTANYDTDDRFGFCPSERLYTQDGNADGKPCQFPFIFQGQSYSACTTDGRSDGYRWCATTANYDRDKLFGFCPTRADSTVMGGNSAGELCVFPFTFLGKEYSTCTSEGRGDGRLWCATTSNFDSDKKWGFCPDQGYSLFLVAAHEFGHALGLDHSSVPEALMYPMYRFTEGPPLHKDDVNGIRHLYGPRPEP

B1: M91002_G0 (designed binder)
chain: GSGMKETAAAKFERQHMDSPDLGTDDDDKAMAENLYFQGDPQFGLFSKYRTPNCRTGRGPACQMGFQPVCGSDMSTYANECTLCMKIREGGHNIKIIRNGPC
IC50 [1]: 3.6 nM

B2: M91011 (designed binder)
chain: GSGMKETAAAKFERQHMDSPDLGTDDDDKAMADIGSANSDPQFGLFSKYRTPNCMMYKYAQCSHKSQPVCGSDMSTYANECTLCMKIREGGHNIKIIRNGPCGASAAA
IC50 [2]: 15 nM | IC50 [3]: 15 nM | IC50 [4]: 16 nM | IC50 [5]: 24 nM | IC50 [6]: 16 nM | IC50 [7]: 23 nM | IC50 [8]: 21 nM | IC50 [9]: 21 nM | IC50 [10]: 28 nM | IC50 [11]: 8.7 nM

B3: M91005 (designed binder)
chain: GSGMKETAAAKFERQHMDSPDLGTDDDDKAMADIGSANSDPQFGLFSKYRTPNCRKRGGPSCQMSYNPVCGSDMSTYANECTLCMKIREGGHNIKIIRNGPCGASAAA
IC50 [2]: 19 nM | IC50 [12]: 18 nM | IC50 [3]: 15 nM | IC50 [4]: 16 nM | IC50 [5]: 25 nM | IC50 [6]: 15 nM | IC50 [7]: 31 nM | IC50 [8]: 20 nM | IC50 [9]: 21 nM | IC50 [13]: 22 nM | IC50 [10]: 30 nM | IC50 [14]: 9.3 nM | IC50 [15]: 22 nM | IC50 [11]: 23 nM

B4: M91005_D1G-Fc-01 (Fc fusion)
chain: GSGMKETAAAKFERQHMDSPDLGTDDDDKAMADIGSANSGPQFGLFSKYRTPNCRKRGGPSCQMSYNPVCGSDMSTYANECTLCMKIREGGHNIKIIRNGPCGASAAAGGGGSDKTHTCPPCPAPELLGGPSVFLFPPKPKDTLMISRTPEVTCVVVDVSHEPEVKFNWYVDGVEVHNAKTKPREEQYNSTYRVVSVLTVLHQDWLNGKEYCKVSNKALPAPIEKTISKAKGQPREPQVYTLPPSREEMTKNQVSLTCLVGFYPSDIAVEWESNGQPENNYKTTPPVLDSDGSFFLYSKLTVDKSRWQQNVFSCSVMHEALHNHYTQKSLSLSPGK
IC50 [16]: 4.3 nM

B5: M91002_G3 (designed binder)
chain: GSGMKETAAAKFERQHMDSPDLGTDDDDKAMAENLYFQGDPQFGLFSKYRTPNCRTGRGPACQMGFQPVCGSDMSTYANECTLCMKIREGGHNIKIIRNGPCGGG
IC50 [1]: 3.5 nM

B6: M91002_G2 (designed binder)
chain: GSGMKETAAAKFERQHMDSPDLGTDDDDKAMAENLYFQGDPQFGLFSKYRTPNCRTGRGPACQMGFQPVCGSDMSTYANECTLCMKIREGGHNIKIIRNGPCGG
IC50 [1]: 3.5 nM
